The record followed here is patent US5932432.

A value given as a limit tells only on which side of the number the result lay.

Assay [1] has as its target yeast RAS1 protein with the carboxy-terminal sequence CAIM (yeast) (UniProt P01119).
Assay [2] concerns the target yeast RAS1 protein with the carboxy-terminal sequence CAIL (yeast) (UniProt P01119).

For “farnesyl:protein transferase (FTase) present in a tobacco protein extract (enzyme)”, the figures for the lowest protein concentration detected by radiolabeling protein blots with [3H]FPP (in vitro farnesylation, fluorography) in assay [1] and in assay [2] were 0.12 mmol m^-2 and under 12, respectively.
